Assay results reported in patent publication US20230241187A1.

Columns and labels:
insulin receptor (IR) [1] = experiment: competition ELISA, plate-bound Insulin-R, 20 nM insulin-biotin, competitor […], average
insulin receptor (IR) [2] = experiment: competition ELISA, plate-bound Insulin-R, 20 nM insulin-biotin, competitor 250 nM, average
insulin receptor (IR) [3] = experiment: competition ELISA, plate-bound Insulin-R, 20 nM insulin-biotin, competitor 500 nM, average
insulin receptor (IR) [4] = experiment: competition ELISA, plate-bound Insulin-R, 20 nM insulin-biotin, competitor 1000 nM, average
insulin receptor (IR) [5] = experiment: competition ELISA, plate-bound Insulin-R, 20 nM insulin-biotin, competitor 2000 nM, average
insulin receptor (IR) [6] = experiment: competition ELISA, plate-bound Insulin-R, 20 nM insulin-biotin, competitor 62.5 nM, average
insulin receptor (IR) [7] = experiment: competition ELISA, plate-bound Insulin-R, 20 nM insulin-biotin, competitor […], replicate 1
insulin receptor (IR) [8] = experiment: competition ELISA, plate-bound Insulin-R, 20 nM insulin-biotin, competitor […], replicate 2
insulin receptor (IR) [9] = experiment: competition ELISA, plate-bound Insulin-R, 20 nM insulin-biotin, competitor 31.25 nM, average
insulin receptor (IR) [10] = experiment: competition ELISA, plate-bound Insulin-R, 20 nM insulin-biotin, competitor 15.625 nM, average
insulin receptor (IR) [11] = experiment: competition ELISA, plate-bound Insulin-R, 20 nM insulin-biotin, competitor 7.8125 nM, average
insulin receptor (IR) [12] = experiment: competition ELISA, plate-bound Insulin-R, 20 nM insulin-biotin, competitor 1.95313 nM, average
insulin receptor (IR) [13] = experiment: competition ELISA, plate-bound Insulin-R, 20 nM insulin-biotin, competitor 250 nM, replicate 1
insulin receptor (IR) [14] = experiment: competition ELISA, plate-bound Insulin-R, 20 nM insulin-biotin, competitor 250 nM, replicate 2
insulin receptor (IR) [15] = experiment: competition ELISA, plate-bound Insulin-R, 20 nM insulin-biotin, competitor 3.90625 nM, average
insulin receptor (IR) [16] = experiment: competition ELISA, plate-bound Insulin-R, 20 nM insulin-biotin, competitor 500 nM, replicate 1
insulin receptor (IR) [17] = experiment: competition ELISA, plate-bound Insulin-R, 20 nM insulin-biotin, competitor 500 nM, replicate 2
insulin receptor (IR) [18] = experiment: competition ELISA, plate-bound Insulin-R, 20 nM insulin-biotin, competitor 1000 nM, replicate 1
insulin receptor (IR) [19] = experiment: competition ELISA, plate-bound Insulin-R, 20 nM insulin-biotin, competitor 1000 nM, replicate 2
insulin receptor (IR) [20] = experiment: competition ELISA, plate-bound Insulin-R, 20 nM insulin-biotin, competitor 2000 nM, replicate 1
insulin receptor (IR) [21] = experiment: competition ELISA, plate-bound Insulin-R, 20 nM insulin-biotin, competitor 2000 nM, replicate 2
insulin receptor (IR) [22] = experiment: competition ELISA, plate-bound Insulin-R, 20 nM insulin-biotin, competitor 62.5 nM, replicate 1
insulin receptor (IR) [23] = experiment: competition ELISA, plate-bound Insulin-R, 20 nM insulin-biotin, competitor 62.5 nM, replicate 2
insulin receptor (IR) [24] = experiment: competition ELISA, plate-bound Insulin-R, 20 nM insulin-biotin, competitor 31.25 nM, replicate 1
insulin receptor (IR) [25] = experiment: competition ELISA, plate-bound Insulin-R, 20 nM insulin-biotin, competitor 31.25 nM, replicate 2
insulin receptor (IR) [26] = experiment: competition ELISA, plate-bound Insulin-R, 20 nM insulin-biotin, competitor 15.625 nM, replicate 1
insulin receptor (IR) [27] = experiment: competition ELISA, plate-bound Insulin-R, 20 nM insulin-biotin, competitor 15.625 nM, replicate 2
insulin receptor (IR) [28] = experiment: competition ELISA, plate-bound Insulin-R, 20 nM insulin-biotin, competitor 7.8125 nM, replicate 1
insulin receptor (IR) [29] = experiment: competition ELISA, plate-bound Insulin-R, 20 nM insulin-biotin, competitor 7.8125 nM, replicate 2
insulin receptor (IR) [30] = experiment: competition ELISA, plate-bound Insulin-R, 20 nM insulin-biotin, competitor 1.95313 nM, replicate 1
insulin receptor (IR) [31] = experiment: competition ELISA, plate-bound Insulin-R, 20 nM insulin-biotin, competitor 1.95313 nM, replicate 2
insulin receptor (IR) [32] = experiment: competition ELISA, plate-bound Insulin-R, 20 nM insulin-biotin, competitor 3.90625 nM, replicate 1
insulin receptor (IR) [33] = experiment: competition ELISA, plate-bound Insulin-R, 20 nM insulin-biotin, competitor 3.90625 nM, replicate 2
insulin receptor (IR) [34] = experiment: plate-bound Insulin-R, 20 nM insulin-biotin, 0 nM competitor (IFG-II series), average
insulin receptor (IR) [35] = experiment: plate-bound Insulin-R, 20 nM insulin-biotin, 0 nM competitor (Insulin series), average
insulin receptor (IR) [36] = experiment: plate-bound Insulin-R, 20 nM insulin-biotin, 0 nM competitor (ZC701B20 series), average
insulin receptor (IR) [37] = experiment: plate-bound Insulin-R, 20 nM insulin-biotin, 0 nM competitor (ZC1487B26 series), average
insulin receptor (IR) [38] = experiment: plate-bound Insulin-R, 20 nM insulin-biotin, 0 nM competitor (IFG-II series), replicate 1
insulin receptor (IR) [39] = experiment: plate-bound Insulin-R, 20 nM insulin-biotin, 0 nM competitor (IFG-II series), replicate 2
insulin receptor (IR) [40] = experiment: plate-bound Insulin-R, 20 nM insulin-biotin, 0 nM competitor (Insulin series), replicate 1
insulin receptor (IR) [41] = experiment: plate-bound Insulin-R, 20 nM insulin-biotin, 0 nM competitor (Insulin series), replicate 2
insulin receptor (IR) [42] = experiment: plate-bound Insulin-R, 20 nM insulin-biotin, 0 nM competitor (ZC701B20 series), replicate 1
insulin receptor (IR) [43] = experiment: plate-bound Insulin-R, 20 nM insulin-biotin, 0 nM competitor (ZC701B20 series), replicate 2
insulin receptor (IR) [44] = experiment: plate-bound Insulin-R, 20 nM insulin-biotin, 0 nM competitor (ZC1487B26 series), replicate 1
insulin receptor (IR) [45] = experiment: plate-bound Insulin-R, 20 nM insulin-biotin, 0 nM competitor (ZC1487B26 series), replicate 2
[46] = target: ConA (ConA-sepharose beads); experiment: pull-down on ConA-sepharose beads, GUS activity in flow through

Sequence of periodate/borohydride modified ß-glucuronidase (enzyme) (P08236 23-651): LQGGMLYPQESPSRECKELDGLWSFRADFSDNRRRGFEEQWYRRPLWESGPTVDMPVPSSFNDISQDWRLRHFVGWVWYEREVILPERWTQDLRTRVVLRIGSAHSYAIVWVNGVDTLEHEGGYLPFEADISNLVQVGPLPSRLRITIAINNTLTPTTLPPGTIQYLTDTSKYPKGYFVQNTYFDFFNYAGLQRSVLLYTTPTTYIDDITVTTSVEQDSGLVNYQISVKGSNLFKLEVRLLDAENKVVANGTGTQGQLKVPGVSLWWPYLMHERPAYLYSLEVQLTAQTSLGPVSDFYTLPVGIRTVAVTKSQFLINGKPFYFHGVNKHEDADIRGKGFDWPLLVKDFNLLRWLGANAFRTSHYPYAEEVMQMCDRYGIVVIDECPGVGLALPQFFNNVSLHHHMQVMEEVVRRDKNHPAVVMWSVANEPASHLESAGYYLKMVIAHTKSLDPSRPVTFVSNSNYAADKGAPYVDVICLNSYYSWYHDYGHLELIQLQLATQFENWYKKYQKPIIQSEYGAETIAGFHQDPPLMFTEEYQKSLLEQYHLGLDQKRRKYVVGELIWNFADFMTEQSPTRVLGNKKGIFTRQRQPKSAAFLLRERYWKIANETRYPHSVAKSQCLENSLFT

| Substance | Chemiluminescence Intensity (insulin receptor (IR) [1]) | Chemiluminescence Intensity (insulin receptor (IR) [2]) | Chemiluminescence Intensity (insulin receptor (IR) [3]) | Chemiluminescence Intensity (insulin receptor (IR) [4]) | Chemiluminescence Intensity (insulin receptor (IR) [5]) | Chemiluminescence Intensity (insulin receptor (IR) [6]) | Chemiluminescence Intensity (insulin receptor (IR) [7]) | Chemiluminescence Intensity (insulin receptor (IR) [8]) | Chemiluminescence Intensity (insulin receptor (IR) [9]) | Chemiluminescence Intensity (insulin receptor (IR) [10]) | Chemiluminescence Intensity (insulin receptor (IR) [11]) | Chemiluminescence Intensity (insulin receptor (IR) [12]) | Chemiluminescence Intensity (insulin receptor (IR) [13]) | Chemiluminescence Intensity (insulin receptor (IR) [14]) | Chemiluminescence Intensity (insulin receptor (IR) [15]) | Chemiluminescence Intensity (insulin receptor (IR) [16]) | Chemiluminescence Intensity (insulin receptor (IR) [17]) | Chemiluminescence Intensity (insulin receptor (IR) [18]) | Chemiluminescence Intensity (insulin receptor (IR) [19]) | Chemiluminescence Intensity (insulin receptor (IR) [20]) | also measured |
| --- | --- | --- | --- | --- | --- | --- | --- | --- | --- | --- | --- | --- | --- | --- | --- | --- | --- | --- | --- | --- | --- |
| IGF-II (wild-type, non-biotinylated control ligand) (from UniProt P01344 25-91) | 874 | 605 | 368 | 222 | 105 | 1110 | 828 | 919 | 1320 | 1430 | 1480 | 1330 | 644 | 566 | 1420 | 356 | 379 | 268 | 176 | 70 | Chemiluminescence Intensity (insulin receptor (IR) [21]): 140; Chemiluminescence Intensity (insulin receptor (IR) [22]): 991; Chemiluminescence Intensity (insulin receptor (IR) [23]): 1220; Chemiluminescence Intensity (insulin receptor (IR) [24]): 1190; Chemiluminescence Intensity (insulin receptor (IR) [25]): 1450; Chemiluminescence Intensity (insulin receptor (IR) [26]): 1490; Chemiluminescence Intensity (insulin receptor (IR) [27]): 1380; Chemiluminescence Intensity (insulin receptor (IR) [28]): 1480; Chemiluminescence Intensity (insulin receptor (IR) [29]): 1480; Chemiluminescence Intensity (insulin receptor (IR) [30]): 1410; Chemiluminescence Intensity (insulin receptor (IR) [31]): 1250; Chemiluminescence Intensity (insulin receptor (IR) [32]): 1480; Chemiluminescence Intensity (insulin receptor (IR) [33]): 1370 |
| Insulin (non-biotinylated control) (from UniProt P01308 25-54; P01308 90-110) (ligand) | 236 | 122 | 61.5 | 34 | 25.5 | 498 | 243 | 229 | 634 | 832 | 753 | 1250 | 102 | 141 | 1260 | 66 | 57 | 43 | 25 | 38 | Chemiluminescence Intensity (insulin receptor (IR) [21]): 13; Chemiluminescence Intensity (insulin receptor (IR) [22]): 479; Chemiluminescence Intensity (insulin receptor (IR) [23]): 517; Chemiluminescence Intensity (insulin receptor (IR) [24]): 750; Chemiluminescence Intensity (insulin receptor (IR) [25]): 517; Chemiluminescence Intensity (insulin receptor (IR) [26]): 780; Chemiluminescence Intensity (insulin receptor (IR) [27]): 885; Chemiluminescence Intensity (insulin receptor (IR) [28]): 503; Chemiluminescence Intensity (insulin receptor (IR) [29]): 1000; Chemiluminescence Intensity (insulin receptor (IR) [30]): 1050; Chemiluminescence Intensity (insulin receptor (IR) [31]): 1460; Chemiluminescence Intensity (insulin receptor (IR) [32]): 1180; Chemiluminescence Intensity (insulin receptor (IR) [33]): 1340 |
| Insulin-biotin (biotinylated insulin) (from UniProt P01308 25-54; P01308 90-110) (ligand) | – | – | – | – | – | – | – | – | – | – | – | – | – | – | – | – | – | – | – | – | Chemiluminescence Intensity (insulin receptor (IR) [34]): 1920; Chemiluminescence Intensity (insulin receptor (IR) [35]): 1940; Chemiluminescence Intensity (insulin receptor (IR) [36]): 1840; Chemiluminescence Intensity (insulin receptor (IR) [37]): 2010; Chemiluminescence Intensity (insulin receptor (IR) [38]): 1870; Chemiluminescence Intensity (insulin receptor (IR) [39]): 1960; Chemiluminescence Intensity (insulin receptor (IR) [40]): 2180; Chemiluminescence Intensity (insulin receptor (IR) [41]): 1690; Chemiluminescence Intensity (insulin receptor (IR) [42]): 1790; Chemiluminescence Intensity (insulin receptor (IR) [43]): 1890; Chemiluminescence Intensity (insulin receptor (IR) [44]): 1950; Chemiluminescence Intensity (insulin receptor (IR) [45]): 2070 |
| periodate/borohydride modified ß-glucuronidase (enzyme) | – | – | – | – | – | – | – | – | – | – | – | – | – | – | – | – | – | – | – | – | ConA binding activity lost [46]: 60% |
